Earlier results in article PMC5803174.

Columns and labels:
[1] = target: beta-cardiac myosin proximal S2 (Homo sapiens) (UniProt P12883)
[2] = target: beta-cardiac myosin short S1 (Homo sapiens) (UniProt P12883)

| Kd [1] [µM] | Kd [2] [µM] | Substance |
| --- | --- | --- |
| 5 | – | MyBP-C C1-C2 (from UniProt Q14896) |
| – | 17.5 | cardiac MyBP-C (from UniProt Q14896) |
